Test results published in the supplement of paper PMC7125110.
± gives the standard error. This sample holds only a part of the variants without activity.

B1: glmS ribozyme (parent)
chain: AUAAAAGCGCCAGAACUACAGAAAUGUAGUUGACGAGGAGGAGGUUUAUCGAAUUUUCGGCGGAUGCCUCCAAA

How the values were obtained:
Details in all cases: with glucosamine-6-phosphate
glucosamine-6-phosphate [1] = variants of: B1; assay: self-cleavage kobs at 640 uM GlcN6P; higher = faster cleavage; RNA array
Summary of the method: (§1)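 E. coli RNA polymerase transcribed barcoded ribozyme variants in situ on sequenced MiSeq chips, which were tracked via a hybridised Cy3 probe at 37 °C. Tiles were imaged over ~14 h after glucosamine-6-phosphate (40 μM to 10 mM) in HEPES/KCl/Mg(OAc)2 buffer was flowed in. Normalised per-tile medians were fit to one- or two-exponential decays for kobs, and kcat and KM came from weighted Michaelis–Menten fits.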

glucosamine-6-phosphate [2] = variants of: B1; assay: self-cleavage kobs at 2500 uM GlcN6P; higher = faster cleavage; RNA array
Summary of the method: as §1

glucosamine-6-phosphate [3] = variants of: B1; assay: self-cleavage kobs at 10000 uM GlcN6P; higher = faster cleavage; RNA array
Summary of the method: as §1

Variant	self-cleavage kobs at 640 uM GlcN6P (glucosamine-6-phosphate [1])	self-cleavage kobs at 2500 uM GlcN6P (glucosamine-6-phosphate [2])	self-cleavage kobs at 10000 uM GlcN6P (glucosamine-6-phosphate [3])
A39C C58G G63U U65A C71G	< 1e-05 s⁻¹	< 1e-05 s⁻¹	< 1e-05 s⁻¹
A36G U47G	< 1e-05 s⁻¹	–	< 1e-05 s⁻¹
A33U C34G U49A A53U	< 1e-05 s⁻¹	–	< 1e-05 s⁻¹
G41A U57C C67A	< 1e-05 s⁻¹	< 1e-05 s⁻¹	–
A33U A42G C68A	< 1e-05 s⁻¹	< 1e-05 s⁻¹	–
G35C G44C U45C A48G	< 1e-05 s⁻¹	< 1e-05 s⁻¹	–
A33C G41A A53U	< 1e-05 s⁻¹	–	–
A33U G44U A48C	< 1e-05 s⁻¹	–	–
G38A G44C C67U C71A	< 1e-05 s⁻¹	< 1e-05 s⁻¹	–
G40U G41C C70A	6.65e-05 ± 1.8e-05 s⁻¹	0.000546 ± 0.00013 s⁻¹	–
G38A U54G C71U	< 1e-05 s⁻¹	–	–
G37U G59U G63A	< 1e-05 s⁻¹	< 1e-05 s⁻¹	–
A33U C34U C70G	0.00168 ± 0.00079 s⁻¹	–	–
A39G G44A C58A	< 1e-05 s⁻¹	–	–
G37U G38A G41U U49A A52U G59U C67A	< 1e-05 s⁻¹	–	–
G38A G44U C50A	< 1e-05 s⁻¹	–	–
C34A G51A A52G	< 1e-05 s⁻¹	< 1e-05 s⁻¹	–
G41U A53U U69G	< 1e-05 s⁻¹	–	–
A42G U55C G66U	0.000398 ± 7.7e-05 s⁻¹	0.000634 ± 0.00014 s⁻¹	0.00167 ± 0.00029 s⁻¹
C34G U49A G66A	< 1e-05 s⁻¹	–	–
C34G A39C U46A	< 1e-05 s⁻¹	–	–
G35C A48G A53U U69C	< 1e-05 s⁻¹	–	–
A42C A53U U56G	< 1e-05 s⁻¹	–	–

Variant	self-cleavage kobs at 640 uM GlcN6P (glucosamine-6-phosphate [1])	self-cleavage kobs at 2500 uM GlcN6P (glucosamine-6-phosphate [2])	self-cleavage kobs at 10000 uM GlcN6P (glucosamine-6-phosphate [3])
A33C G41U U47G U65C C68A	< 1e-05 s⁻¹	–	–
G38C G40U U46A	< 1e-05 s⁻¹	–	–
C34U A48U A64U	< 1e-05 s⁻¹	< 1e-05 s⁻¹	–
G40C U56C A64C C70A	< 1e-05 s⁻¹	–	–
G32U G41U A52G G60A	< 1e-05 s⁻¹	–	–
A33G G38U U65A C70G	7.69e-05 ± 2.1e-05 s⁻¹	–	–
G41U U47G A53U	9.96e-05 ± 2.8e-05 s⁻¹	0.000276 ± 6.9e-05 s⁻¹	–
G37U A42C U56G	< 1e-05 s⁻¹	–	–
A36C G37A A64G	< 1e-05 s⁻¹	–	–
G37A U54G U69A	0.000103 ± 2.5e-05 s⁻¹	5.96e-05 ± 2.2e-05 s⁻¹	–
G32U A42G G66U C68U	< 1e-05 s⁻¹	–	–
G41C G63C A64U	< 1e-05 s⁻¹	< 1e-05 s⁻¹	–
A36C G44U C61U C67U	< 1e-05 s⁻¹	< 1e-05 s⁻¹	–
G37C C68U U69G	6e-05 ± 2e-05 s⁻¹	–	–
G38U G43U U57C C70U	< 1e-05 s⁻¹	–	–
G38A G40U G43A A52C	< 1e-05 s⁻¹	–	–
G35A A39G C61U	< 1e-05 s⁻¹	< 1e-05 s⁻¹	–
G40A A42U A48U	< 1e-05 s⁻¹	–	–
A36C G41A C50G C58G	< 1e-05 s⁻¹	–	–
A33C G66C	< 1e-05 s⁻¹	–	–
A42G G43A U46G G66U	< 1e-05 s⁻¹	< 1e-05 s⁻¹	–
G43C G44A C68A	< 1e-05 s⁻¹	< 1e-05 s⁻¹	–
A33G G43U G59U A64G	< 1e-05 s⁻¹	< 1e-05 s⁻¹	–

Variant	self-cleavage kobs at 640 uM GlcN6P (glucosamine-6-phosphate [1])	self-cleavage kobs at 2500 uM GlcN6P (glucosamine-6-phosphate [2])	self-cleavage kobs at 10000 uM GlcN6P (glucosamine-6-phosphate [3])
G35C A36C A42C G43C G51A	< 1e-05 s⁻¹	< 1e-05 s⁻¹	–
G40U U65G	0.000417 ± 0.00014 s⁻¹	0.00108 ± 0.00028 s⁻¹	0.0019 ± 0.00044 s⁻¹
A36U A53G C58U C67G C70A	0.000184 ± 4.8e-05 s⁻¹	0.00115 ± 0.00026 s⁻¹	–
A39U A42C A53U C58U	< 1e-05 s⁻¹	< 1e-05 s⁻¹	–
G38A C61U C68U	< 1e-05 s⁻¹	–	–
G40A A42G U46A	0.000129 ± 4.5e-05 s⁻¹	0.000599 ± 0.0003 s⁻¹	0.00096 ± 0.00023 s⁻¹
G43A A53G G60U	< 1e-05 s⁻¹	< 1e-05 s⁻¹	–
G40A U45A C70U	4.7e-05 ± 2.2e-05 s⁻¹	7.49e-05 ± 2.1e-05 s⁻¹	–
C34G A39U U49G	< 1e-05 s⁻¹	–	–
A39U G41U U47A A52C	< 1e-05 s⁻¹	< 1e-05 s⁻¹	–
G37A U49A G66A	< 1e-05 s⁻¹	–	–
G35C G38A A64G	< 1e-05 s⁻¹	< 1e-05 s⁻¹	–
G35C G38A U69G	0.00083 ± 0.00024 s⁻¹	–	–
G41A A42G U45G	0.0066 ± 0.002 s⁻¹	–	–
A42G G51U C70U	< 1e-05 s⁻¹	–	–
G38A A42G G62U	< 1e-05 s⁻¹	–	–
A36G A42C U57C G59U	< 1e-05 s⁻¹	< 1e-05 s⁻¹	–
G38C U45A C70G	< 1e-05 s⁻¹	–	< 1e-05 s⁻¹
A33C A42U C67A	< 1e-05 s⁻¹	–	–
G32U A52U C58U C61U	< 1e-05 s⁻¹	< 1e-05 s⁻¹	–
G35A A48C U54A C70A	< 1e-05 s⁻¹	–	< 1e-05 s⁻¹
A39C U55G C67U	7.28e-05 ± 1.4e-05 s⁻¹	–	–
A36U G38A A52U C67G	4.67e-05 ± 1.8e-05 s⁻¹	4.17e-05 ± 2.1e-05 s⁻¹	–

Variant	self-cleavage kobs at 640 uM GlcN6P (glucosamine-6-phosphate [1])	self-cleavage kobs at 2500 uM GlcN6P (glucosamine-6-phosphate [2])	self-cleavage kobs at 10000 uM GlcN6P (glucosamine-6-phosphate [3])
C34G G44A U56C U57C	< 1e-05 s⁻¹	–	–
C34U U69G C71U	0.000948 ± 0.00043 s⁻¹	6.74e-05 ± 3.3e-05 s⁻¹	–
G40U U46C U55G	0.000194 ± 6.6e-05 s⁻¹	–	–
G38A G40U U65C	< 1e-05 s⁻¹	–	–
G40U U47C A53C U54A	7.34e-05 ± 2.8e-05 s⁻¹	0.000202 ± 3.7e-05 s⁻¹	–
C34U U57A	< 1e-05 s⁻¹	< 1e-05 s⁻¹	–
G38C A42G U49G A52G G63C	< 1e-05 s⁻¹	< 1e-05 s⁻¹	–
A33G A39G G41A	< 1e-05 s⁻¹	–	–
G35A C58A	< 1e-05 s⁻¹	< 1e-05 s⁻¹	–
G41U U46G A48C U49C	< 1e-05 s⁻¹	–	–
A36C A42G G43A C67G	< 1e-05 s⁻¹	–	–
G40A G41A C71A	6.52e-05 ± 1.3e-05 s⁻¹	9.76e-05 ± 1.9e-05 s⁻¹	–
G35C G37U A64G C68U	< 1e-05 s⁻¹	–	–
G41C A48U C71U	< 1e-05 s⁻¹	–	–
G43A G44C C67A C70A	< 1e-05 s⁻¹	< 1e-05 s⁻¹	–
G40A U57A C71U	6.1e-05 ± 2.3e-05 s⁻¹	0.000149 ± 3.4e-05 s⁻¹	–
A36U U45A C50U U54C U57A	< 1e-05 s⁻¹	< 1e-05 s⁻¹	–
G40C G66A C70A	9.02e-05 ± 2.4e-05 s⁻¹	0.000246 ± 6.6e-05 s⁻¹	0.000559 ± 0.0001 s⁻¹
G35U A36G C61A	< 1e-05 s⁻¹	–	–
G41A U54A	0.000113 ± 2.9e-05 s⁻¹	0.000311 ± 8.8e-05 s⁻¹	0.000101 ± 2.1e-05 s⁻¹
A42U G44C A52C U57G U65A U69C	< 1e-05 s⁻¹	< 1e-05 s⁻¹	–
G35A C50U G62C C68G	< 1e-05 s⁻¹	–	–
A42C C61G C70A	< 1e-05 s⁻¹	< 1e-05 s⁻¹	< 1e-05 s⁻¹

Variant	self-cleavage kobs at 640 uM GlcN6P (glucosamine-6-phosphate [1])	self-cleavage kobs at 2500 uM GlcN6P (glucosamine-6-phosphate [2])	self-cleavage kobs at 10000 uM GlcN6P (glucosamine-6-phosphate [3])
A39C U45A C68G	< 1e-05 s⁻¹	–	–
A33G A36C U54C	< 1e-05 s⁻¹	< 1e-05 s⁻¹	< 1e-05 s⁻¹
C34A A39C G59C C61G	< 1e-05 s⁻¹	< 1e-05 s⁻¹	–
A42G A64G C71G	0.000615 ± 0.00014 s⁻¹	0.00107 ± 0.0003 s⁻¹	0.000757 ± 0.00025 s⁻¹
G40A U57C C58A C61U	< 1e-05 s⁻¹	–	–
G41A G44A G60A	< 1e-05 s⁻¹	–	–
A36C U54G G63A	< 1e-05 s⁻¹	–	–
A36G G43A G59U	< 1e-05 s⁻¹	< 1e-05 s⁻¹	–
A42C U47G U57C	< 1e-05 s⁻¹	< 1e-05 s⁻¹	–
G37C A39G U45A U49A	< 1e-05 s⁻¹	< 1e-05 s⁻¹	–
A42C U49G C58A	< 1e-05 s⁻¹	< 1e-05 s⁻¹	–
C34U G44C G63U A64C	< 1e-05 s⁻¹	–	–
A36G A39C A52U U57A	< 1e-05 s⁻¹	–	–
G32U G38C C68U	< 1e-05 s⁻¹	–	–
G37C A53C G60A	< 1e-05 s⁻¹	–	–
G41U C50A U65A	< 1e-05 s⁻¹	–	–
C34U G44A A48U U56A G60A	< 1e-05 s⁻¹	–	–
G35A U46C U65A	< 1e-05 s⁻¹	–	< 1e-05 s⁻¹
G37A U55C U56G	0.000171 ± 5.1e-05 s⁻¹	–	–
G37A U55G C70U	0.000222 ± 4.2e-05 s⁻¹	0.000106 ± 3e-05 s⁻¹	–
G37C U57A A64C C71A	< 1e-05 s⁻¹	< 1e-05 s⁻¹	–
A36C U49C	< 1e-05 s⁻¹	–	< 1e-05 s⁻¹
C34U U46G C68G	0.000568 ± 0.00025 s⁻¹	< 1e-05 s⁻¹	–

Variant	self-cleavage kobs at 640 uM GlcN6P (glucosamine-6-phosphate [1])	self-cleavage kobs at 2500 uM GlcN6P (glucosamine-6-phosphate [2])	self-cleavage kobs at 10000 uM GlcN6P (glucosamine-6-phosphate [3])
A39C G40U G44A U55C U65G	< 1e-05 s⁻¹	< 1e-05 s⁻¹	–
A33G G51A U55C C68A	< 1e-05 s⁻¹	–	–
G40U G44U C68U	< 1e-05 s⁻¹	–	–
G35C A52U C67U C68A	< 1e-05 s⁻¹	–	–
G38U G43U U65C C68G C71G	< 1e-05 s⁻¹	–	–
A39U A42C C50G	< 1e-05 s⁻¹	–	< 1e-05 s⁻¹
G40C G41A G43U	< 1e-05 s⁻¹	–	–
G37C G59C	< 1e-05 s⁻¹	< 1e-05 s⁻¹	< 1e-05 s⁻¹
G40U U55A C71A	0.00279 ± 0.00086 s⁻¹	–	0.0227 ± 0.0049 s⁻¹
G37U U65A G66C	< 1e-05 s⁻¹	–	–
G40A U45C C50A G60A C67A	< 1e-05 s⁻¹	< 1e-05 s⁻¹	–
A36G A39C U47G	< 1e-05 s⁻¹	< 1e-05 s⁻¹	< 1e-05 s⁻¹
C34A G35U A36U	< 1e-05 s⁻¹	–	< 1e-05 s⁻¹
A36U U46C C50U C58U G59C C67A	< 1e-05 s⁻¹	–	–
C34G G51A C67U	< 1e-05 s⁻¹	–	–
A36C U46G U54A U55G	< 1e-05 s⁻¹	–	–
G37A C50U G51U	< 1e-05 s⁻¹	< 1e-05 s⁻¹	–
G40U U46C A53U	0.000351 ± 0.00012 s⁻¹	–	0.000745 ± 0.00019 s⁻¹
G35A G51A C58U	< 1e-05 s⁻¹	–	–
G43A U47A A53C G59C	< 1e-05 s⁻¹	< 1e-05 s⁻¹	–
